B1: IQ motif and ubiquitin-like domain-containing protein (Homo sapiens), Q8NA54 (parent)
chain: MSNQQEKYEAQNIVNSTEESDDAFDTVTIPVPSEEPQESDQTEEHESGIEQFSESHAIHVEEQSDQSFSSLEPDNEQLMEEVISPRQVSYTPQHHEKQYAMQRPNDDSLAFLDKIKSVKESLQESVEDSLATVKVVLIPVGQEIVIPFKVDTILKYLKDHFSHLLGIPHSVLQIRYSGKILKNNETLVQHGVKPQEIVQVEIFSTNPDLYPVRRIDGLTDVSQIITVTVQTGLDQYQQVPVEIVKSDFHKPFLGGFRHKVTGVEYHNAGTQTVPKRIPERLSIFCRDTQTVFQKKNLQQTTNTTSTQMTNIGVYVSNMTDKLVTPGKYFSAAEYHAQRLKAVIVIQTYYRQWHAKIFVENLRRQKSLRLEWETQQELRKIREKEEWIKLDYHRRHNPKTNEDFEFLYNALEFWRQEELTRINQSFTGAERKAALCELLEKETQIIASIGRHRYIAYMANQEAAIQAFLDKCSAPKIWRTPNGKTIEMDTQFTIRARELQNIYKCIMLKNISQDERLDVLLTLKHTVKEHECKLTQEILELIDREVDLMMRGVKHHNLEGLRKRIATLFFHYIKTPLFNPEVAKYLKVPQDPLKFYKKIYFCHSCQLYLPSTEFSVSSTSRRIYRCRNCINLQNEAQKRESFLKYKCLLQQLYYTEADYEDDSKIAFLMQLQDIQYLTENIWASQSVLSACDNLSDLVMVRWNKSLEWSPWNCILLTKDEAAAHLKLTSIEEGYERSFIHKIKHKHILAKNYFSQVPVLASFILDDGEIDEIRWKYHSDTTPKIIESQRPPH
partner: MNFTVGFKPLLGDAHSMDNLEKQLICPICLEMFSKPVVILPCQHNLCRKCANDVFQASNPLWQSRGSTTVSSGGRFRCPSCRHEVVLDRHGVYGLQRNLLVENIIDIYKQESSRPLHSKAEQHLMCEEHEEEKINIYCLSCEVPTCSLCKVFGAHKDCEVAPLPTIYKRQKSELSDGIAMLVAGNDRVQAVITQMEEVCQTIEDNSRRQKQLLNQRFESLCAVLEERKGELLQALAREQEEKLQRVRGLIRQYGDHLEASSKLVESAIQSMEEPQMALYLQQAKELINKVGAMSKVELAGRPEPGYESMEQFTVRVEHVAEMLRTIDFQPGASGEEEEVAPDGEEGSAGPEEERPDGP
B2: Notch homolog 2 N-terminal-like protein A (Homo sapiens), Q7Z3S9 (parent)
chain: MCVTYHNGTGYCKCPEGFLGEYCQHRDPCEKNRCQNGGTCVAQAMLGKATCRCASGFTGEDCQYSTSHPCFVSRPCLNGGTCHMLSRDTYECTCQVGFTGKECQWTDACLSHPCANGSTCTTVANQFSCKCLTGFTGQKCETDVNECDIPGHCQHGGTCLNLPGSYQCQCLQGFTGQYCDSLYVPCAPSPCVNGGTCRQTGDFTFECNCLPETVRRGTELWERDREVWNGKEHDEN
partner: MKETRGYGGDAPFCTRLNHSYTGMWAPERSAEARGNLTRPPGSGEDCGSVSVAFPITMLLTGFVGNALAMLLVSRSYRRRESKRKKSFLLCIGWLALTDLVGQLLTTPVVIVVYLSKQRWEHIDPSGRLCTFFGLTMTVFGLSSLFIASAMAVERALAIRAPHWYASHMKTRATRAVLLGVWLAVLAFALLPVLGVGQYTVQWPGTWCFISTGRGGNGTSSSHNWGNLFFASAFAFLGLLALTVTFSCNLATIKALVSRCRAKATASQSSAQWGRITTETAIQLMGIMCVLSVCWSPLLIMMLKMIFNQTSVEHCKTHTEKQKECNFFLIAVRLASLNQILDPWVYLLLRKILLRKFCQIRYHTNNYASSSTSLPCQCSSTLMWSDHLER
B3: TBC1 domain family member 22B (Homo sapiens), Q9NU19 (parent)
chain: MAAENSKQFWKRSAKLPGSIQPVYGAQHPPLDPRLTKNFIKERSKVNTVPLKNKKASSFHEFARNTSDAWDIGDDEEEDFSSPSFQTLNSKVALATAAQVLENHSKLRVKPERSQSTTSDVPANYKVIKSSSDAQLSRNSSDTCLRNPLHKQQSLPLRPIIPLVARISDQNASGAPPMTVREKTRLEKFRQLLSSQNTDLDELRKCSWPGVPREVRPITWRLLSGYLPANTERRKLTLQRKREEYFGFIEQYYDSRNEEHHQDTYRQIHIDIPRTNPLIPLFQQPLVQEIFERILFIWAIRHPASGYVQGINDLVTPFFVVFLSEYVEEDVENFDVTNLSQDMLRSIEADSFWCMSKLLDGIQDNYTFAQPGIQKKVKALEELVSRIDEQVHNHFRRYEVEYLQFAFRWMNNLLMRELPLRCTIRLWDTYQSEPEGFSHFHLYVCAAFLIKWRKEILDEEDFQGLLMLLQNLPTIHWGNEEIGLLLAEAYRLKYMFADAPNHYRR
B4: Centrosomal protein of 55 kDa (Homo sapiens), Q53EZ4 (parent)
chain: MSSRSTKDLIKSKWGSKPSNSKSETTLEKLKGEIAHLKTSVDEITSGKGKLTDKERHRLLEKIRVLEAEKEKNAYQLTEKDKEIQRLRDQLKARYSTTTLLEQLEETTREGERREQVLKALSEEKDVLKQQLSAATSRIAELESKTNTLRLSQTVAPNCFNSSINNIHEMEIQLKDALEKNQQWLVYDQQREVYVKGLLAKIFELEKKTETAAHSLPQQTKKPESEGYLQEEKQKCYNDLLASAKKDLEVERQTITQLSFELSEFRRKYEETQKEVHNLNQLLYSQRRADVQHLEDDRHKTEKIQKLREENDIARGKLEEEKKRSEELLSQVQFLYTSLLKQQEEQTRVALLEQQMQACTLDFENEKLDRQHVQHQLHVILKELRKARNQITQLESLKQLHEFAITEPLVTFQGETENREKVAASPKSPTAALNESLVECPKCNIQYPATEHRDLLVHVEYCSK
partner: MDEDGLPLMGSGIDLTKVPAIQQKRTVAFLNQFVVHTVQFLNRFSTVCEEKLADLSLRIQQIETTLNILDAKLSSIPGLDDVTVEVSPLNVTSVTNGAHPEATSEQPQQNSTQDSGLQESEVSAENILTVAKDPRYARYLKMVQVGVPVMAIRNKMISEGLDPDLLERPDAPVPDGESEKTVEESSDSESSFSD

Variants of: B1
Settings: with tri54_human TRIM54, Q9BYV2

| Variant | effect of a mutation on the interaction |
| --- | --- |
| I501F | disrupting interaction strength |

Variants of: B2
Settings: with pe2r3_human PTGER3, P43115

| Variant | effect of a mutation on the interaction |
| --- | --- |
| R74Q | with no effect |
| A115T | with no effect |

Variants of: B3
Settings: with tri23_human TRIM23, P36406
Sequence of tri23_human TRIM23, P36406 (P36406 whole entry): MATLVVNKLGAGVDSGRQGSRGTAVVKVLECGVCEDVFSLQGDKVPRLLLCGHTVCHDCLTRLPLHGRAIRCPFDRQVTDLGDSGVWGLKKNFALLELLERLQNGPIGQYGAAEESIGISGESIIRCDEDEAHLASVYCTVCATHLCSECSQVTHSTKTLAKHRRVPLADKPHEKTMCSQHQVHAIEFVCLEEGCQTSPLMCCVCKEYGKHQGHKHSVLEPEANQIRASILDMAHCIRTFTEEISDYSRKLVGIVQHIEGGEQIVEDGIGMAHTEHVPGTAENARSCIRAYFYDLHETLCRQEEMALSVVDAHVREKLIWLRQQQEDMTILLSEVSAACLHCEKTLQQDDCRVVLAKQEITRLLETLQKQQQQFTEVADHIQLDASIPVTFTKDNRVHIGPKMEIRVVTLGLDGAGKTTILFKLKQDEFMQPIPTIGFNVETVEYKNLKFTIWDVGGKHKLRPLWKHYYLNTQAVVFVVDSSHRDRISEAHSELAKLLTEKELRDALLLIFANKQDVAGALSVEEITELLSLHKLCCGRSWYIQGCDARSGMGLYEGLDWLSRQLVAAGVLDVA

| Variant | effect of a mutation on the interaction |
| --- | --- |
| P177A | with no effect |

Variants of: B3
Settings: with ikzf3_human IKZF3, Q9UKT9
Sequence of ikzf3_human IKZF3, Q9UKT9 (Q9UKT9 whole entry): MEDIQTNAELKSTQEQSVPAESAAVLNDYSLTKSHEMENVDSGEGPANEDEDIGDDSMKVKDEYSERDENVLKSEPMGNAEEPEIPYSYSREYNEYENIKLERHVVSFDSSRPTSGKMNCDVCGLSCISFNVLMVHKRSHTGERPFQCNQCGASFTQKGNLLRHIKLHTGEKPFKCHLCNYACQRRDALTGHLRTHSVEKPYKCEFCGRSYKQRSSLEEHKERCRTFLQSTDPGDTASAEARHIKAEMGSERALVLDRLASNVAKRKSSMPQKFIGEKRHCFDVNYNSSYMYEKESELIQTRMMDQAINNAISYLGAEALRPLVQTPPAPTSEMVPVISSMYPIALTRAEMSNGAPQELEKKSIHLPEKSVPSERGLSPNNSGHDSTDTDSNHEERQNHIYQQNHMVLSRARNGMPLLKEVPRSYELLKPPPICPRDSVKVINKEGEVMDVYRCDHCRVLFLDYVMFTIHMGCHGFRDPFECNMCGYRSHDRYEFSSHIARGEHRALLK

| Variant | effect of a mutation on the interaction |
| --- | --- |
| P177A | with no effect |

Variants of: B4
Settings: with wasc3_human WASHC3, Q9Y3C0

| Variant | effect of a mutation on the interaction |
| --- | --- |
| L59F | with no effect |
